Article PMC10790359, “System for Self-excited Targeted Photodynamic Therapy Based on the Multimodal Protein DARP-NanoLuc-SOPP3” (Acta Naturae, 2023)

Biological target: T1, HER2 (human epidermal growth factor receptor type II) (human (endogenous in SKOV3.ip1), UniProt P04626 23-1255)
T1 construct: HER2, human epidermal growth factor receptor type II, on the surface of human ovarian adenocarcinoma SKOV3.ip1 / SKOV3.ip1-Kat cells; also called HER2 receptor; HER2 tumor marker; source: endogenous, on SKOV3.ip1 and SKOV3.ip1-Kat cells (HER2 overexpression)
Assay: flow cytometry on cells; cells incubated with 300 nM DARP-NanoLuc-SOPP3-AF488 conjugate in complete growth medium for 10 min at 37°C, washed thrice with phosphate-buffered saline; HER2-positive SKOV3.ip1-Kat cells; control: unlabelled cells
Conditions: one partner purified

B1: DARP-NanoLuc-SOPP3 (designed binder)
chain: MDLGKKLLEAARAGQDDEVRILMANGADVNAHDFYGITPLHLAANFGHLEIVEVLLKHGADVNAFDYDNTPLHLAADAGHLEIVEVLLKYGADVNASDRDGHTPLHLAAREGHLEIVEVLLKNGADVNAQDKFGKTAFDISIDNGNEDLAEILQEFPKPSTPPGSSGGAMVFTLEDFVGDWRQTAGYNLDQVLEQGGVSSLFQNLGVSVTPIQRIVLSGENGLKIDIHVIIPYEGLSGDQMGQIEKIFKVVYPVDDHHFKVILHYGTLVIDGVTPNMIDYFGRPYEGIAVFDGKKITVTGTLWNGNKIIDERLINPDGSLLFRVTINGVTGWRLCERILAGGGGSGSEKSFVITDPRLPDNPIIFASDGFLELTEYSREEILGRNGRFLQGPETDQATVQKIRDAIRDQREITVQLINYTKSGKKFLNLLNLQPIRDQKGELQAFIGVQVDGKLAAALE
modifications: conjugated with N-hydroxysuccinimide esters of dyes (AF488 or Cy5.5) for flow cytometry and confocal microscopy; legends and results call the green conjugate FITC; labelled residues not stated
notes: DARPin_9-29, HER2-specific targeting module; NanoLuc luciferase (engineered), amplified from plasmid pNL1.1.CMV (Promega); SOPP3 phototoxic flavoprotein (a miniSOG analogue, engineered), amplified from pET24-SOPP3; vector-derived residues between SOPP3 and the C-terminal HHHHHH of the printed chain; cytotoxicity assays used the protein without a dye; also called DARPin-NanoLuc-SOPP3; …
fold shift in the median fluorescence of conjugate-treated cells compared to the control: ~100 fold
